How the values were obtained:
[1] = Relative enzymatic activity of GLD (DCIP/1-m-PMS, plate reader, yeast culture supernatant) with 1,10-phenanthroline present; assay type: biochemical; settings: site-specific mutants, inhibitor final concentration 1 mM
Procedure, shortened: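 Inhibitor at 1 mM final substitutes for the methanol in the reagent, and the sample rate is expressed as % of the inhibitor-free blank. Rates come from ΔA600/min of DCIP with glucose and 1-m-PMS at pH 7.0, using supernatants of YPD-grown yeast clones (24 h, 30° C.).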

[2] = Relative enzymatic activity of GLD (DCIP/1-m-PMS, plate reader, yeast culture supernatant) with proflavin hydrochloride present; assay type: biochemical; settings: site-specific mutants, inhibitor final concentration 1 mM
Procedure, shortened: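 Culture supernatant diluted and mixed with reagent of phosphate buffer pH 7.0, 1.0 M D-glucose, 3 mM DCIP, 3 mM 1-m-PMS and methanol (0.1:1:0.14:0.2:0.06). DCIP absorbance decrease at 600 nm followed; proflavin hydrochloride in methanol replaced methanol at 1 mM final. Activity expressed as % of inhibitor-free blank.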

B1: Y424E: modified GLD: SEQ ID NO: 1 with substitution Y424E (protein, listed as Aspergillus terreus)
chain: MLGKLSFLSALSLAVAAPLSNSTSAKYDYIVIGGGTSGLAVANRLSEDPNVNVLILEAGGSVWNNPNVTNVDGYGLAFGSDIDWQYQSVNQPYGGNLSQVLRAGKALGGTSTINGMAYTRAEDVQIDAWETIGNTGWTWKNLFPYYRKSENFTVPTKSQTSLGASYEAGAHGHEGPLDVAFTQIESNNLTTYLNRTFQGMGLPWTEDVNGGKMRGFNLYPSTVNLEEYVREDAARAYYWPYKSRPNLHVLLNTFANRIVWDGEAHDGHITASGVEITSRNGTVRVINAEKEVIVSAGALKSPAILELSGIGNPSVLDKHNIPVKVNLPTVGENLQDQVNSHMDASGNTSISGTKAVSYPDVYDVFGDEAESVAKQIRANLKQYAADTAKANGNIMKAADLERLFEVQYDLIFKGRVPIAEVLNEPGSATSVFAEFWALLPFARGSVHIGSSNPAEFPVINPNYFMLDWDAKSYVAVAKYIRRSFESYPLSSIVKESTPGYDVIPRNASEQSWKEWVFDKNYRSNFHPVGTAAMMPREIGGVVDERLNVYGTTNVRVVDASVLPFQVCGHLVSTLYAVAERAADLIKADAGRR
modifications: SIGNAL (1)..(19)
Relative Activity [%] 1,10-Phenanthroline [1]: 87.5%
Relative Activity [%] Proflavin hydrochloride [2]: 37.1%

B2: Y424K: modified GLD: SEQ ID NO: 1 with substitution Y424K (protein, listed as Aspergillus terreus)
chain: MLGKLSFLSALSLAVAAPLSNSTSAKYDYIVIGGGTSGLAVANRLSEDPNVNVLILEAGGSVWNNPNVTNVDGYGLAFGSDIDWQYQSVNQPYGGNLSQVLRAGKALGGTSTINGMAYTRAEDVQIDAWETIGNTGWTWKNLFPYYRKSENFTVPTKSQTSLGASYEAGAHGHEGPLDVAFTQIESNNLTTYLNRTFQGMGLPWTEDVNGGKMRGFNLYPSTVNLEEYVREDAARAYYWPYKSRPNLHVLLNTFANRIVWDGEAHDGHITASGVEITSRNGTVRVINAEKEVIVSAGALKSPAILELSGIGNPSVLDKHNIPVKVNLPTVGENLQDQVNSHMDASGNTSISGTKAVSYPDVYDVFGDEAESVAKQIRANLKQYAADTAKANGNIMKAADLERLFEVQYDLIFKGRVPIAEVLNKPGSATSVFAEFWALLPFARGSVHIGSSNPAEFPVINPNYFMLDWDAKSYVAVAKYIRRSFESYPLSSIVKESTPGYDVIPRNASEQSWKEWVFDKNYRSNFHPVGTAAMMPREIGGVVDERLNVYGTTNVRVVDASVLPFQVCGHLVSTLYAVAERAADLIKADAGRR
modifications: SIGNAL (1)..(19)
Relative Activity [%] 1,10-Phenanthroline [1]: 71.9%
Relative Activity [%] Proflavin hydrochloride [2]: 52.5%

B3: Y424S: modified GLD: SEQ ID NO: 1 with substitution Y424S (protein, listed as Aspergillus terreus)
chain: MLGKLSFLSALSLAVAAPLSNSTSAKYDYIVIGGGTSGLAVANRLSEDPNVNVLILEAGGSVWNNPNVTNVDGYGLAFGSDIDWQYQSVNQPYGGNLSQVLRAGKALGGTSTINGMAYTRAEDVQIDAWETIGNTGWTWKNLFPYYRKSENFTVPTKSQTSLGASYEAGAHGHEGPLDVAFTQIESNNLTTYLNRTFQGMGLPWTEDVNGGKMRGFNLYPSTVNLEEYVREDAARAYYWPYKSRPNLHVLLNTFANRIVWDGEAHDGHITASGVEITSRNGTVRVINAEKEVIVSAGALKSPAILELSGIGNPSVLDKHNIPVKVNLPTVGENLQDQVNSHMDASGNTSISGTKAVSYPDVYDVFGDEAESVAKQIRANLKQYAADTAKANGNIMKAADLERLFEVQYDLIFKGRVPIAEVLNSPGSATSVFAEFWALLPFARGSVHIGSSNPAEFPVINPNYFMLDWDAKSYVAVAKYIRRSFESYPLSSIVKESTPGYDVIPRNASEQSWKEWVFDKNYRSNFHPVGTAAMMPREIGGVVDERLNVYGTTNVRVVDASVLPFQVCGHLVSTLYAVAERAADLIKADAGRR
modifications: SIGNAL (1)..(19)
Relative Activity [%] 1,10-Phenanthroline [1]: 81.4%
Relative Activity [%] Proflavin hydrochloride [2]: 61.0%

B4: Y424R: modified GLD: SEQ ID NO: 1 with substitution Y424R (protein, listed as Aspergillus terreus)
chain: MLGKLSFLSALSLAVAAPLSNSTSAKYDYIVIGGGTSGLAVANRLSEDPNVNVLILEAGGSVWNNPNVTNVDGYGLAFGSDIDWQYQSVNQPYGGNLSQVLRAGKALGGTSTINGMAYTRAEDVQIDAWETIGNTGWTWKNLFPYYRKSENFTVPTKSQTSLGASYEAGAHGHEGPLDVAFTQIESNNLTTYLNRTFQGMGLPWTEDVNGGKMRGFNLYPSTVNLEEYVREDAARAYYWPYKSRPNLHVLLNTFANRIVWDGEAHDGHITASGVEITSRNGTVRVINAEKEVIVSAGALKSPAILELSGIGNPSVLDKHNIPVKVNLPTVGENLQDQVNSHMDASGNTSISGTKAVSYPDVYDVFGDEAESVAKQIRANLKQYAADTAKANGNIMKAADLERLFEVQYDLIFKGRVPIAEVLNRPGSATSVFAEFWALLPFARGSVHIGSSNPAEFPVINPNYFMLDWDAKSYVAVAKYIRRSFESYPLSSIVKESTPGYDVIPRNASEQSWKEWVFDKNYRSNFHPVGTAAMMPREIGGVVDERLNVYGTTNVRVVDASVLPFQVCGHLVSTLYAVAERAADLIKADAGRR
modifications: SIGNAL (1)..(19)
Relative Activity [%] 1,10-Phenanthroline [1]: 70.3%
Relative Activity [%] Proflavin hydrochloride [2]: 55.6%

B5: Y424Q: modified GLD: SEQ ID NO: 1 with substitution Y424Q (protein, listed as Aspergillus terreus)
chain: MLGKLSFLSALSLAVAAPLSNSTSAKYDYIVIGGGTSGLAVANRLSEDPNVNVLILEAGGSVWNNPNVTNVDGYGLAFGSDIDWQYQSVNQPYGGNLSQVLRAGKALGGTSTINGMAYTRAEDVQIDAWETIGNTGWTWKNLFPYYRKSENFTVPTKSQTSLGASYEAGAHGHEGPLDVAFTQIESNNLTTYLNRTFQGMGLPWTEDVNGGKMRGFNLYPSTVNLEEYVREDAARAYYWPYKSRPNLHVLLNTFANRIVWDGEAHDGHITASGVEITSRNGTVRVINAEKEVIVSAGALKSPAILELSGIGNPSVLDKHNIPVKVNLPTVGENLQDQVNSHMDASGNTSISGTKAVSYPDVYDVFGDEAESVAKQIRANLKQYAADTAKANGNIMKAADLERLFEVQYDLIFKGRVPIAEVLNQPGSATSVFAEFWALLPFARGSVHIGSSNPAEFPVINPNYFMLDWDAKSYVAVAKYIRRSFESYPLSSIVKESTPGYDVIPRNASEQSWKEWVFDKNYRSNFHPVGTAAMMPREIGGVVDERLNVYGTTNVRVVDASVLPFQVCGHLVSTLYAVAERAADLIKADAGRR
modifications: SIGNAL (1)..(19)
Relative Activity [%] 1,10-Phenanthroline [1]: 80.2%
Relative Activity [%] Proflavin hydrochloride [2]: 50.2%

B6: Y424N: modified GLD: SEQ ID NO: 1 with substitution Y424N (protein, listed as Aspergillus terreus)
chain: MLGKLSFLSALSLAVAAPLSNSTSAKYDYIVIGGGTSGLAVANRLSEDPNVNVLILEAGGSVWNNPNVTNVDGYGLAFGSDIDWQYQSVNQPYGGNLSQVLRAGKALGGTSTINGMAYTRAEDVQIDAWETIGNTGWTWKNLFPYYRKSENFTVPTKSQTSLGASYEAGAHGHEGPLDVAFTQIESNNLTTYLNRTFQGMGLPWTEDVNGGKMRGFNLYPSTVNLEEYVREDAARAYYWPYKSRPNLHVLLNTFANRIVWDGEAHDGHITASGVEITSRNGTVRVINAEKEVIVSAGALKSPAILELSGIGNPSVLDKHNIPVKVNLPTVGENLQDQVNSHMDASGNTSISGTKAVSYPDVYDVFGDEAESVAKQIRANLKQYAADTAKANGNIMKAADLERLFEVQYDLIFKGRVPIAEVLNNPGSATSVFAEFWALLPFARGSVHIGSSNPAEFPVINPNYFMLDWDAKSYVAVAKYIRRSFESYPLSSIVKESTPGYDVIPRNASEQSWKEWVFDKNYRSNFHPVGTAAMMPREIGGVVDERLNVYGTTNVRVVDASVLPFQVCGHLVSTLYAVAERAADLIKADAGRR
modifications: SIGNAL (1)..(19)
Relative Activity [%] 1,10-Phenanthroline [1]: 89.9%
Relative Activity [%] Proflavin hydrochloride [2]: 55.6%

Source: patent publication US8969060B2, “Modified glucose dehydrogenase” (Ikeda Food Research Co., Ltd., priority 2011, dated 2015)
